In patent publication US20120149881A1 (Genentech, published 2012):

T1: M1' peptide 1
T1 peptide: ASPSQTVQRAVSVNP

T2: M1' peptide 14
T2 construct: see f1
T2 peptide: VCVEEAEGEAPWTWT

T3: M1' peptide 15
T3 construct: see f1
T3 peptide: AEGEAPWTWTGLCIF

T4: M1' peptide 2
T4 construct: see f1
T4 peptide: TVQRAVSVNPGLAGG

T5: M1' peptide 3
T5 construct: see f1
T5 peptide: GLAGGSAQSQRAPDR

T6: M1' peptide 6
T6 construct: see f1
T6 peptide: VLCHSGQQQGLPRAA

T7: M1' peptide 9
T7 construct: see f1
T7 peptide: GGSVPHPRCHCGAGR

T8: M1' peptide 10
T8 construct: see f1
T8 peptide: HPRCHCGAGRADWPG

T9: M1' peptide 11
T9 construct: see f1
T9 peptide: CGAGRADWPGPPELD

T10: M1' peptide 12
T10 construct: see f1
T10 peptide: ADWPGPPELDVCVEE

T11: M1' peptide 13
T11 construct: see f1
T11 peptide: PPELDVCVEEAEGEA

T12: M1′ peptide 8 (human)
T12 peptide: PRAAGGSVPHPRCH

T13: M1′ peptide 4 (human)
T13 peptide: SAQSQRAPDRVLCHS

T14: M1′ peptide 5 (human)
T14 peptide: RAPDRVLCHSGQQQG

T15: M1′ peptide 7 (human)
T15 peptide: GQQQGLPRAAGGSVP

T16: cyno IgE/M1′ expressed on transduced Daudi cells (human IgE/primate M1′ cassette, cynomolgus) (cynomolgus monkey)
T16 construct: The construct is described as a 'human IgE/primate M1′ cassette'; also called Cyno M1′
T16 chain: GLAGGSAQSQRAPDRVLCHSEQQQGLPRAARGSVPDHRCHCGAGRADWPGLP

T17: rhesus IgE/M1′ expressed on transduced Daudi cells (human IgE/primate M1′ cassette, rhesus) (rhesus monkey)
T17 construct: The construct is described as a 'human IgE/primate M1′ cassette'; also called Rhesus M1′
T17 chain: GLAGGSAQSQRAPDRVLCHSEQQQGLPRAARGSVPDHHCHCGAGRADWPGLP


Columns and labels:
[1] = molecular target: T18, human IgE CH3-CH4-M1′/Fc fusion protein (human); assay: SPR Biacore A100, M1′ immobilized
T18 construct: also called M1′ (immobilized)

[2] = molecular target: T19, human IgE with the M1′ sequence (long form of membrane IgE) expressed on transduced BJAB or Daudi cells (human, UniProt P01854 116-546); assay: Scatchard analysis on cells expressing human IgE/M1′
T19 construct: Full-length heavy and light chains of the U266 IgE B cell receptor, retrovirally expressed; also called IgE/M1′; IgE-M1′
Procedure: The BJAB or Daudi cells expressing various forms of IgE with or without M1′ (Human, Rhesus, Cyno) were prepared for binding in cold Binding buffer composed of base media, with 10 mM HEPES pH 7.4, and 2% FBS as well as 40 ug/ml human IgG. Cells are diluted to concentration of 1.7×10⁶ cells/ml, and kept on ice until they are added to the assay. The proteins/antibodies are iodinated with the Iodogen method. Various concentrations of cold protein are prepared in triplicate, using a 1:2 dilution starting with the saturation concentration and ending at a concentration of zero, with a total of 14 concentrations. Hot protein of a single concentration is added to all dilutions compete with the cold protein. Lastly the cells are added to the hot and cold protein mixture, 250,000 cells per sample were used. Assay is kept at 4° C. for 4 hours, shaking. Each sample is then collected and filtered on membrane, washed at least 3 times with binding buffer, allowed to dry and then counted for 1 minute using Perkin Elmer Wizard 1470 Auto Gamma Counter.

[3] = molecular target: T18, human IgE CH3-CH4-M1′/Fc fusion protein; assay: SPR Biacore 2000, IgG immobilized, M1′-Fc analyte
M1' peptide 1 = molecular target: T1, M1' peptide 1; assay: ELISA on coated antigen, relative OD450/650
Procedure: (§1) 15 peptides were generated spanning the sequence surrounding and including human M1′ (Clifford Quan) (FIG. 5A). Peptides were resuspended in either dH20 or 50% DMSO. […] 0.05% Tween-20, 10 ppm Proclin., 0.2% BgG, 0.25% Chaps, 5 mM EDTA, 0.35M NaCl]. […] Plates were then incubated for 2 hours at room temperature. Murine antibody plates were washed 3 times and then anti-mouse IgG1-Biotin (BD Biosciences (A85-1) #553441) was added (1:10,000, 100 μl per well) and incubated for 1 hour at RT. Following 3 washes, SA-HRP (BD Biosciences #554066) was added (1:20,000, 100 μl per well) and incubated for 1 hour. Human IgG1 antibody plates were washed as before and anti-hulgG.Fc-HRP (Jackson ImmunoResearch (#109-036-098)) was added (1:10,000, 100 μl per well) and incubated for 1 hour at RT. Once secondary incubations were complete, plates were washed 6 times and TMB substrate (BD OptEIA #555214) was added (100 μl per well). The substrate-HRP reaction was stopped with 1M H3PO4 after ˜4 minutes. Plates were then read at 450/650. Data was represented as relative OD (OD₄₅₀/CD650).

M1' peptide 14 = molecular target: T2, M1' peptide 14; assay: ELISA on coated antigen, relative OD450/650
Procedure: as §1

M1' peptide 15 = molecular target: T3, M1' peptide 15; assay: ELISA on coated antigen, relative OD450/650
Procedure: as §1

M1' peptide 2 = molecular target: T4, M1' peptide 2; assay: ELISA on coated antigen, relative OD450/650
Procedure: as §1

M1' peptide 3 = molecular target: T5, M1' peptide 3; assay: ELISA on coated antigen, relative OD450/650
Procedure: as §1

M1' peptide 6 = molecular target: T6, M1' peptide 6; assay: ELISA on coated antigen, relative OD450/650
Procedure: as §1

M1' peptide 9 = molecular target: T7, M1' peptide 9; assay: ELISA on coated antigen, relative OD450/650
Procedure: as §1

M1' peptide 10 = molecular target: T8, M1' peptide 10; assay: ELISA on coated antigen, relative OD450/650
Procedure: as §1

M1' peptide 11 = molecular target: T9, M1' peptide 11; assay: ELISA on coated antigen, relative OD450/650
Procedure: as §1

M1' peptide 12 = molecular target: T10, M1' peptide 12; assay: ELISA on coated antigen, relative OD450/650
Procedure: as §1

M1' peptide 13 = molecular target: T11, M1' peptide 13; assay: ELISA on coated antigen, relative OD450/650
Procedure: as §1

M1′ peptide 8 = molecular target: T12, M1′ peptide 8; assay: ELISA on coated antigen, relative OD450/650
Procedure: as §1

M1′ peptide 4 = molecular target: T13, M1′ peptide 4; assay: ELISA on coated antigen, relative OD450/650
Procedure: as §1

M1′ peptide 5 = molecular target: T14, M1′ peptide 5; assay: ELISA on coated antigen, relative OD450/650
Procedure: as §1

M1′ peptide 7 = molecular target: T15, M1′ peptide 7; assay: ELISA on coated antigen, relative OD450/650
Procedure: as §1

[4] = molecular target: T19, human IgE with the M1′ sequence (long …); assay: competitive ECL binding on BJAB-IgE/M1′ cells vs biotinylated 26A11 or 47H4, 1st IC50 column
[5] = molecular target: T19, human IgE with the M1′ sequence (long …); assay: competitive ECL binding on BJAB-IgE/M1′ cells vs biotinylated 26A11 or 47H4, 2nd IC50 column
[6] = molecular target: T19, human IgE with the M1′ sequence (long …); assay: Scatchard, iodinated antibody on IgE/M1′ cells
[7] = molecular target: T18, human IgE CH3-CH4-M1′/Fc fusion protein; assay: SPR Biacore 2000, M1′-Fc immobilized
[8] = molecular target: T16, cyno IgE/M1′ expressed on transduced …; assay: Scatchard analysis on cells expressing cyno IgE/M1′
[9] = molecular target: T17, rhesus IgE/M1′ expressed on transduced …; assay: Scatchard analysis on cells expressing rhesus IgE/M1′

T18 sequence (chain, as listed by the source limits assumed): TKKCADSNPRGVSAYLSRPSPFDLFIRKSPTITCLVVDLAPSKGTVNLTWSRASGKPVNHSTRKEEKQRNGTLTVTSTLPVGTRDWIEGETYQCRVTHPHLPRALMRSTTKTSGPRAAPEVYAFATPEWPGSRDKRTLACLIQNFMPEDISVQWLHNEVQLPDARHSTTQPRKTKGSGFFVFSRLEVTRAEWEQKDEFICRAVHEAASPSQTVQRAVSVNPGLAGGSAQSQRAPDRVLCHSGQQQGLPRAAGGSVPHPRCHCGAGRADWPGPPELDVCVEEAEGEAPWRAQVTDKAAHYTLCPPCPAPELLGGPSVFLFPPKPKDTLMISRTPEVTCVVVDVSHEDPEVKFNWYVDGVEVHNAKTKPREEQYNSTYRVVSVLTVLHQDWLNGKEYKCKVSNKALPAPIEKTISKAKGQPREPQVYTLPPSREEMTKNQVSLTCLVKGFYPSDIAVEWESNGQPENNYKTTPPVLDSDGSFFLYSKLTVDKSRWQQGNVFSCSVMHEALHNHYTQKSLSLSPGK
T19 sequence (P01854 116-546 I515L limits assumed): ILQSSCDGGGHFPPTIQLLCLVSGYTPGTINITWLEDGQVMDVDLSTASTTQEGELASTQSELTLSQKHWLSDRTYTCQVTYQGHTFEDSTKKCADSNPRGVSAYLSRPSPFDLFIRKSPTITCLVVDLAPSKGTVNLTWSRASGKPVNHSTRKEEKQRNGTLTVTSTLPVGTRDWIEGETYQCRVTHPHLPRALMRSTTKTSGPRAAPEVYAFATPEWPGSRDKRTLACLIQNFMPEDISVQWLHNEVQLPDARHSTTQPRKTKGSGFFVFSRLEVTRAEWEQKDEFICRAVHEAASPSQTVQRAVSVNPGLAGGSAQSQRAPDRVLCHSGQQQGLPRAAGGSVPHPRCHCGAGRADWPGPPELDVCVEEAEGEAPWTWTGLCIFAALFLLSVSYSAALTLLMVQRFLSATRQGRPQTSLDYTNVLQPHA

Row | Binder | Kd [1] [nM] | Kd [2] [nM] | binding result (M1' peptide 1) | binding result (M1' peptide 14) | binding result (M1' peptide 15) | binding result (M1' peptide 2) | binding result (M1' peptide 3) | binding result (M1' peptide 6) | binding result (M1' peptide 9) | binding result (M1' peptide 10) | binding result (M1' peptide 11) | binding result (M1' peptide 12) | binding result (M1' peptide 13) | binding result (M1′ peptide 8) | binding result (M1′ peptide 4) | binding result (M1′ peptide 5) | binding result (M1′ peptide 7) | IC50 [4] [nM] | IC50 [5] [nM] | also measured
1 | murine anti-IgE/M1′ antibody 7A6 (antibody, V domains shown, mIgG1 hybridoma antibody; also called mu7A6; 7A6 mIgG1) VH: QVQLQQSGAELVRPGASVTLSCKASGYTFIDYEMHWVKQTPVHGLEWIGAIDPETGTTAYNQKFKGKATLTAAKSSSTAYMELRSLTSEDSAVYYCTRLRPHYDYDNAMDSWGQGTTLTVSS VL: DIVMSQSPSSLTVSVGEKVTLSCKSSQTLLYSTNQKNYLAWYQQKPGQSPKLLIYWASTRESGVPDRFTGSGSGTDFTLTISSVKAEDLAVYYCQQYYSYPYTFGGGTKVEIKR | 4.5 | 0.64 |  |  |  |  |  |  |  |  |  |  |  |  | binds | binds |  | 52 |  | Kd [6]: 0.6 nM
2 | humanized anti-IgE/M1′ antibody 47H4.v5 (antibody, V domains shown, huIgG1; also called 47H4v5 huIgG1; 47H5 v.5) VH: EVQLVESGGGLVQPGGSLRLSCAASGFTFSDYGIAWVRQAPGKGLEWVAFISDLAYTIYYADTVTGRFTISRDNSKNTLYLQMNSLRAEDTAVYYCARDNWDAMDYWGQGTLVTVSS VL: DIQMTQSPSSLSASVGDRVTITCRSSQSLVHNNANTYLHWYQQKPGKAPKLLIYKVSNRFSGVPSRFSGSGSGTDFTLTISSLQPEDFATYYCSQNTLVPWTFGQGTKVEIKR |  | 1.5 | no binding | no binding | no binding | no binding | no binding | no binding | no binding | no binding | no binding | no binding | no binding | no binding | binds | no binding | no binding |  | 60 | Kd [7]: 23 nM; Kd [8]: 2.5 nM; Kd [9]: 1.3 nM

More lines, in order of falling Kd [1], values ahead:

Row | Kd [1] [nM] | Kd [2] [nM] | binding result (M1' peptide 1) | binding result (M1' peptide 14) | binding result (M1' peptide 15) | binding result (M1' peptide 2) | binding result (M1' peptide 3) | binding result (M1' peptide 6) | binding result (M1' peptide 9) | binding result (M1' peptide 10) | binding result (M1' peptide 11) | binding result (M1' peptide 12) | binding result (M1' peptide 13) | binding result (M1′ peptide 8) | binding result (M1′ peptide 4) | binding result (M1′ peptide 5) | binding result (M1′ peptide 7) | IC50 [4] [nM] | IC50 [5] [nM] | Binder | also measured
3 | 15 |  | no binding | no binding | no binding | no binding | no binding | no binding | no binding | no binding | no binding | no binding | no binding | no binding | binds | binds | no binding | 39 |  | humanized anti-IgE/M1′ antibody 7A6.v1 (antibody, V domains shown, direct CDR graft, huIgG1; also called 7A6v1 huIgG1; 7A67v1 [sic]) VH: EVQLVESGGGLVQPGGSLRLSCAASGYTFIDYEMHWVRQAPGKGLEWVGAIDPETGTTAYNQKFKGRFTISADTSKNTAYLQMNSLRAEDTAVYYCTRLRPHYDYDNAMDSWGQGTLVTVSS VL: DIQMTQSPSSLSASVGDRVTITCKSSQTLLYSTNQKNYLAWYQQKPGKAPKLLIYWASTRESGVPSRFSGSGSGTDFTLTISSLQPEDFATYYCQQYYSYPYTFGQGTKVEIKR | 
4 | 2.6 | 1.85 | no binding | no binding | no binding | no binding | no binding | no binding | no binding | no binding | no binding | no binding | no binding | binds | no binding | no binding | binds | 11 | 23 | humanized anti-IgE/M1′ antibody 26A11.v6 (antibody, V domains shown, huIgG1; also called 26A11v6 huIgG1) VH: EVQLVESGGGLVQPGGSLRLSCAASGYTFTDYYIMWVRQAPGKGLEWVGDINPNNYDTSYNQKFKGRFTISADTSKNTAYLQMNSLRAEDTAVYYCASKAYWGQGTLVTVSS VL: DIQMTQSPSSLSASVGDRVTITCRSSQDISNYLNWYQQKPGKAPKLLIYSTSRLHSGVPSRFSGSGSGTDFTLTISSLQPEDFATYYCQQGHTLPWTFGQGTKVEIKR | Kd [3]: 8.3 nM
